Results on one substance are retold here after patent US20240360189A1.

In one assay the target is FcγRIIIA (CD16) (human) (UniProt P08637). Briefly: cell-based or functional assay.
The target of assay [1] is CD20 on Daudi lymphoma cells (UniProt P11836). Briefly: flow cytometry on Daudi cells, goat anti-human Fc AF647; matched Fc density chosen for the comparison of C3b deposition, concentration not given.
CD20 on Daudi lymphoma cells, sequence (P11836 whole entry): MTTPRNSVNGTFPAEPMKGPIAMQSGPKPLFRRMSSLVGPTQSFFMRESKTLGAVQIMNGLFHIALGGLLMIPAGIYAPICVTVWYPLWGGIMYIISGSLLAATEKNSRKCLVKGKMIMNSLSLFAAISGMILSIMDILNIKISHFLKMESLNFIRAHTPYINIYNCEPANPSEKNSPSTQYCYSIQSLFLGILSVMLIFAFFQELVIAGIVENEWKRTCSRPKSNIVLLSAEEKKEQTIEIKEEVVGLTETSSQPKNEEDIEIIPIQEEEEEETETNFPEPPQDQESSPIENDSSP

FcγRIIIA (CD16) (human), sequence (P08637 17-254): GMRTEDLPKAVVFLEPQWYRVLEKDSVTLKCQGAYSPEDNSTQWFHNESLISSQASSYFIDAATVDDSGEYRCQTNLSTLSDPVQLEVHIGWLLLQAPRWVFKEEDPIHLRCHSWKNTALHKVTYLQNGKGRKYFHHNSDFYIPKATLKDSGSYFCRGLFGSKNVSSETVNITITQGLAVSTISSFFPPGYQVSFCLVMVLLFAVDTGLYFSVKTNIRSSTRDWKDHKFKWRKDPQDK

As to MabThera (rituximab, RTX) (antibody), in the assay with FcγRIIIA (CD16) (human), the percentage of phagocytic macrophages, Daudi targets, absence of complement (ADCP) is 8.6% and the percentage of phagocytic macrophages, Daudi targets, presence of complement (ADCP+CDCP) amounted to 24.1%. This substance showed an MFI anti-Fc in assay [1] of 12200 MFI.
